{"source": "patent US20250064890A1", "about": "“PROTEIN COMPOSITIONS FOR THE TREATMENT OF INFLAMMATORY DISEASES” (Unichem Laboratories Limited, priority 2021, published 2025)", "molecules": {"B1": {"name": "SEQ ID NO 2: recombinant lectin, variant of the S. rolfsii lectin amino acid sequence (reported as Rec-2 in WO 2010/095143) (protein)", "chain": "TYKITVRVYQTNPDAFFHPVEKTVWKYANGGTWTITDDQHVLTMGGSGTSGTLRFHADNGESFTATFGVHNYKRWCDIVTNLAADETGMVINQQYYSQKNREEARERQLSNYQVKNAKGRNFQIVYTEAEGNDLHANLIIG"}}, "key": {"[1]": {"system": "oral (buccal) mucosa cells (TR146)", "test": "Annexin positive cell population against 5-FU damage", "assay_type": "cell-based, human"}, "[2]": {"system": "oral (buccal) mucosa cells (TR146)", "test": "Sub(G0/G1) cell population (cell cycle) against 5-FU induced damage", "assay_type": "cell-based, human", "conditions": "for % Decrease in Apoptotic cells (with respect to control): Sub G0/G1", "description": "(§1) To determine the effect of test item on cell cycle, oral buccal mucosal cells (TR146) were incubated overnight in 5% CO2 incubator at 37° C. for 24 h. […] After 24 h of treatment, cells were exposed to chemotherapy (5-FU 10 mM) for 24 h or radiotherapy (Gamma radiation (3.5 kGy) using Cobalt 60) for 2 h.\n(§2) After incubation, cells were harvested by trypsinization and processed for Cell cycle assay. Accordingly, cells were harvested into prelabeled centrifuge tubes and centrifuged at 450 g for 5 min at room temperature (RT, low brake). The supernatants were removed carefully and discarded. 1 ml of 1× phosphate buffer saline (PBS) was added to the pellet and resuspended gently to make homogenous suspension. Cells were centrifuged at 450 g for 5 min, RT (low brake). The supernatant was carefully removed leaving behind approx. 100 μl of PBS. Cells were resuspended gently yet thoroughly in residual PBS. Ice-cold 70% ethanol (100 μl) was added drop-wise into cells in each tube while vortexing at low speed (fixation step). Cells stored at 4° C. for 24 h were centrifuged at 450 g for 5 min, RT (low brake). The supernatant was carefully removed without touching the pellet and discarded. 1 ml of 1×PBS was added into pellet and resuspended gently. Cells were incubated for 1 minute at RT. Cells were centrifuged at 450 g for 5 min, RT (low brake). The supernatant was removed carefully without touching the pellet, leaving behind approx. 20-50 μl of PBS. 200 μl of cell cycle reagent was added into each tube. Cells were resuspended gently and mixed. Cells were incubated for 30 min at RT in the dark. The stained samples were transferred into 96-well plates and acquired on flow cytometer (Guava technologies). Percentage of cells in Sub (G0/G1) phase were determined based on the concept that cell cycle reagent contains PI stain, which stains DNA of cells in different phases of cell cycle; Sub (G0/G1), G1, S, G2 and M. Cells in Sub (G0/G1) phase correspond to apoptotic cells. Percent inhibition in apoptotic cells is determined by the formula:\n(§3) =[(% Sub(G0/G1) cells in 5-FU/radiation alone)−(% Sub(G0/G1) cells in TI+5-FU/radiation)/% Sub(G0/G1) cells in 5-FU/radiation alone]*100"}, "[3]": {"system": "oral (buccal) mucosa cells (TR146)", "test": "Sub(G0/G1) cell population (cell cycle) against radiation induced damage", "assay_type": "cell-based, human", "conditions": "for % Decrease in Apoptotic cells (with respect to control): Sub G0/G1", "description": "as §1, §2, §3"}, "[4]": {"system": "oral (buccal) mucosa cells (TR146)", "test": "Cytoprotective effect against 5-FU induced damage (MTT)", "assay_type": "cell-based, human", "description": "The cell viability was assessed by (MTT) assay and compared with positive control (Cells treated with Amifostine, EGCG and EGF and negative assay (untreated cells), wherein the control was the cells that underwent chemotherapy/radiotherapy.\nThe protective effect of the recombinant lectin on survival of TR146 cells against 5-FU induced damage was determined using following calculations:\nThe viability of cells was determined as: % Cell viability=(100−% Cytotoxicity); • where, the percentage cytotoxicity corresponding to each treatment was calculated as: % Cytotoxicity=[(R−X)/R]*100, wherein X=Absorbance of cells treated with 5-FU or radiation damage/TI+5-FU, R=Absorbance of Control cells (Untreated) and Percentage protection was calculated as:\n{(Absorbance of TI+5-FU or radiation)−(Absorbance of 5-FU or radiation alone)/(Absorbance of Untreated)−(Absorbance of 5-FU alone)}*100"}, "TNF-α": {"system": "TNF-α", "test": "TNF-α in jugular mucosa (ELISA), 5-FU induced OM in hamsters", "assay_type": "in vivo, golden Syrian hamsters", "conditions": "for TNF-α levels, % Decrease vs G2: G2 = OM + Vehicle", "description": "To induce OM, animals were administered (except normal control) 5-Fluorouracil (5-FU) by intraperitoneal route at doses of 60 mg/kg & 40 mg/kg respectively on first two days. On Day 4, under anesthesia, with aim of enhancing OM, mechanical irritation of the oral mucosa were done using wire brush. Treatment was initiated from Day 4 to Day 12. For group 3 animals 100 μl of vehicle comprising of standard drug Dexamethasone at 0.1 mg was instilled in buccal cheek pouch. For group 4, 5 and 6 animals 100 μl of vehicle comprising of SEQ ID NO. 2 at 0.25 mg, 0.5 mg & 1 mg, respectively was instilled in buccal cheek pouch. At the end of treatment period, cheek pouch of the hamsters was exposed, Mucositis scoring was carried out and images were captured. The animals were then humanely sacrificed, cheek pouch/jugular mucosa were isolated and used for biomarker estimation and histopathological investigation by using ELISA method and Hematoxylin and Eosin (H&E) staining, respectively.\nFurther, for biomarker estimation jugular mucosa was dissected out, tissue weighed and stored in ice cold 1×PBS. 100 mg of tissue was taken and in 1 ml of 1×PBS buffer. Supernatant of homogenate was used for analysis of TNF-α and Interleukin-1β using ELISA method as per manufacturers instruction. The levels of TNF-α and Interleukin-1β are given in Table 13, FIG. 2 and Table 14, FIG. 3, respectively."}, "[5]": {"conditions": "0.01 μg/ml + Radiation (3.5 kGy)"}, "[6]": {"conditions": "0.1 μg/ml + Radiation (3.5 kGy)"}}, "data": [{"molecule": "B1", "values": [{"measurement": "% Apoptotic cells (Annexin +ve)", "setting": "[1]; 0.01 μg/ml + 5FU (10 mM)", "result": 3, "unit": "%"}, {"measurement": "% Decrease in Apoptotic cells (with respect to 5-FU)", "setting": "[1]; 0.01 μg/ml + 5FU (10 mM)", "result": 81.7, "unit": "%"}, {"measurement": "% Apoptotic cells (Annexin +ve)", "setting": "[1]; 1 μg/ml + 5FU (10 mM)", "result": 3.1, "unit": "%"}, {"measurement": "% Decrease in Apoptotic cells (with respect to 5-FU)", "setting": "[1]; 1 μg/ml + 5FU (10 mM)", "result": 81.1, "unit": "%"}, {"measurement": "% Apoptotic cells (Annexin +ve)", "setting": "[1]; 10 μg/ml + 5FU (10 mM)", "result": 8, "unit": "%"}, {"measurement": "% Decrease in Apoptotic cells (with respect to 5-FU)", "setting": "[1]; 10 μg/ml + 5FU (10 mM)", "result": 51.5, "unit": "%"}, {"measurement": "% Apoptotic cells (Annexin +ve)", "setting": "[1]; 50 μg/ml + 5FU (10 mM)", "result": 19.3, "unit": "%"}, {"measurement": "% Decrease in Apoptotic cells (with respect to 5-FU)", "setting": "[1]; 50 μg/ml + 5FU (10 mM)", "result": "−17.4", "unit": "%"}, {"measurement": "% Apoptotic cells (Annexin +ve)", "setting": "[1]; 100 μg/ml + 5FU (10 mM)", "result": 26, "unit": "%"}, {"measurement": "% Decrease in Apoptotic cells (with respect to 5-FU)", "setting": "[1]; 100 μg/ml + 5FU (10 mM)", "result": "−58.5", "unit": "%"}, {"measurement": "% Apoptotic cells (Sub G0/G1)", "setting": "[2]; 0.1 μg/ml + 5FU (10 mM)", "result": 11.4, "unit": "%"}, {"measurement": "% Decrease in Apoptotic cells (with respect to control)", "setting": "[2]; 0.1 μg/ml + 5FU (10 mM)", "result": 63.1, "unit": "%"}, {"measurement": "% Apoptotic cells (Sub G0/G1)", "setting": "[2]; 10 μg/ml + 5FU (10 mM)", "result": 6.8, "unit": "%"}, {"measurement": "% Decrease in Apoptotic cells (with respect to control)", "setting": "[2]; 10 μg/ml + 5FU (10 mM)", "result": 78, "unit": "%"}, {"measurement": "% Apoptotic cells (Sub G0/G1)", "setting": "[2]; 25 μg/ml + 5FU (10 mM)", "result": 14.2, "unit": "%"}, {"measurement": "% Decrease in Apoptotic cells (with respect to control)", "setting": "[2]; 25 μg/ml + 5FU (10 mM)", "result": 54.1, "unit": "%"}, {"measurement": "% Apoptotic cells (Sub G0/G1)", "setting": "[2]; 50 μg/ml + 5FU (10 mM)", "result": 40.7, "unit": "%"}, {"measurement": "% Decrease in Apoptotic cells (with respect to control)", "setting": "[2]; 50 μg/ml + 5FU (10 mM)", "result": "−32.0", "unit": "%"}, {"measurement": "% Apoptotic cells (Sub G0/G1)", "setting": "[3]; [5]", "result": 15.2, "unit": "%"}, {"measurement": "% Decrease in Apoptotic cells (with respect to control)", "setting": "[3]; [5]", "result": 56.9, "unit": "%"}, {"measurement": "% Apoptotic cells (Sub G0/G1)", "setting": "[3]; [6]", "result": 14.3, "unit": "%"}, {"measurement": "% Decrease in Apoptotic cells (with respect to control)", "setting": "[3]; [6]", "result": 59.5, "unit": "%"}, {"measurement": "% Apoptotic cells (Sub G0/G1)", "setting": "[3]; 1 μg/ml + Radiation (3.5 kGy)", "result": 22.3, "unit": "%"}, {"measurement": "% Decrease in Apoptotic cells (with respect to control)", "setting": "[3]; 1 μg/ml + Radiation (3.5 kGy)", "result": 36.9, "unit": "%"}, {"measurement": "% Apoptotic cells (Sub G0/G1)", "setting": "[3]; 10 μg/ml + Radiation (3.5 kGy)", "result": 35.7, "unit": "%"}, {"measurement": "% Decrease in Apoptotic cells (with respect to control)", "setting": "[3]; 10 μg/ml + Radiation (3.5 kGy)", "result": "−1.3", "unit": "%"}, {"measurement": "cell viability against 5-FU induced cell damage", "setting": "[4]", "result": "56.8-78.4%"}, {"measurement": "% Protection", "setting": "[4]; 1 μg/ml + 5-FU (5 mM)", "result": 26, "unit": "%"}, {"measurement": "% Protection", "setting": "[4]; 10 μg/ml + 5-FU (5 mM)", "result": 50.6, "unit": "%"}, {"measurement": "% Protection", "setting": "[4]; 25 μg/ml + 5-FU (5 mM)", "result": 51, "unit": "%"}, {"measurement": "% Protection", "setting": "[4]; 50 μg/ml + 5-FU (5 mM)", "result": 63, "unit": "%"}, {"measurement": "% Protection", "setting": "[4]; 100 μg/ml + 5-FU (5 mM)", "result": 53, "unit": "%"}, {"measurement": "TNF-α levels, Mean", "setting": "TNF-α; G4, 0.25 mg/Animal", "result": 153.48, "unit": "pg/mL"}, {"measurement": "TNF-α levels, % Decrease vs G2", "setting": "TNF-α; G4, 0.25 mg/Animal", "result": "−23.77", "unit": "%"}, {"measurement": "TNF-α levels, Mean", "setting": "TNF-α; G5, 0.5 mg/Animal", "result": 155.76, "unit": "pg/mL"}, {"measurement": "TNF-α levels, % Decrease vs G2", "setting": "TNF-α; G5, 0.5 mg/Animal", "result": "−25.61", "unit": "%"}, {"measurement": "TNF-α levels, Mean", "setting": "TNF-α; G6, 1 mg/Animal", "result": 79.37, "unit": "pg/mL"}, {"measurement": "TNF-α levels, % Decrease vs G2", "setting": "TNF-α; G6, 1 mg/Animal", "result": 36.00, "unit": "%"}, {"measurement": "levels of TNF-α as compared to the untreated subjects", "setting": "TNF-α; hamsters suffering from OM, in words", "result": "reduction"}]}]}
